Data set [1] concerns the target T1, AlkX (Rv3249c), TetR family regulator (Mycobacterium tuberculosis) (UniProt O05892).
T1 sequence: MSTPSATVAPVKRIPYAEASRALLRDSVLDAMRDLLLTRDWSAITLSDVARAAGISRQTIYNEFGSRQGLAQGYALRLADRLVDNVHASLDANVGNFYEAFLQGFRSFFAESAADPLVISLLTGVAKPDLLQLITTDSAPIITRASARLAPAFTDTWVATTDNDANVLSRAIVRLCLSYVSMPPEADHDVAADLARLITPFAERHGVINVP
Briefly: competition.

The target in data set [2] is T1, AlkX (Rv3249c), TetR family regulator (Mycobacterium tuberculosis). Briefly: EMSA.

For 3 sequences, binding results are on record in article PMC9430723.

As to “TCGGCAAGCTCGAGAGAGCGCGACCCGGAGGTGTTGAACTAGCTTCGCCGCGTATTTACAAATTGCGTTATATGTCTAGACATAAGACGCAAACTGCTCTATTGTCAAATCCCAACGTGGTGTGGCTCATGAGGAGGTTTGGCATATGACCACGCAAATCGGCTCTGGTGGACCCGAAG (double strand) [unlabeled (cold) rv3252c (alkB) promoter probe]”, the binding entry in data set [1] is given as “binds”.

For the sequence “TCGGCAAGCTCGAGAGAGCGCGACCCGGAGGTGTTGAACTAGCTTCGCCGCGTATTTACAAATTGCGTTATATGTCTAGACATAAGACGCAAACTGCTCTATTGTCAAATCCCAACGTGGTGTGGCTCATGAGGAGGTTTGGCATATGACCACGCAAATCGGCTCTGGTGGACCCGAAG (double strand) [rv3252c (alkB) promoter probe]”, the binding entry in data set [2] is recorded as “binds”.

Take “CGGCGATTGACTGTTCTACCGACTTCATGCGCCGTCGACCGGCCATGCACCCGTCCTCTCGCACTCGTTGTGACCGCACAGTACTGGGTACTCTGCGAGGATGACGGGTCGCGTAGGGAACCCGAAGGACCACGCCGTGGTGATCGGAGCTAGCATCGCCGGGTTGTGCGCCGCGCGGGTGCTCTCGGACTTCTACTCCA (double strand) [rv3253c promoter probe]”: the binding entry in data set [2] is given as “no binding”.
